Test results: publication PMC13053990

Columns and labels:
[1] = target: miPEP8 fused on its C-terminus to the N-terminal fragment of luciferase (N-Luc) (Drosophila melanogaster); test: split reporter (BiFC, NanoBiT); split firefly luciferase in S2 cells: miPEP8 or Ey fused to N-Luc, candidates or Antp fused to C-Luc; 48 h after transfection, D-luciferin, luminescence normalised; negative control: the two fragments not fused to any protein
[2] = target: EGFP-miPEP8 SLiMmt (mutated SLiM MOD_Plk1/MOD_Plk4) (Drosophila melanogaster); test: affinity purification with mass spectrometry; GFP-Trap agarose beads O/N at 4 °C on lysates of S2 cells transfected with EGFP, EGFP-miPEP8 or EGFP-miPEP8 SLiMmt; lysis buffer 50 mM Tris pH 7.5, 50 mM NaCl, 5% glycerol, 0.1% Igepal; four washes; LC-MS/MS, MaxQuant

B1: PI3K92 E fused with the C-terminal fragment of the luciferase (natural protein)
chain: MNMMDNRALAYVAHQPKYETPPEEAEPPCMRFSVNLWKNEMLNWVDLICLLPNGFLLELRVNPANTIQVIKVEMVNQAKQMPLGYVIKEACEYQVYGISTFNIEPYTDETKRLSEVQPYFGILSLGERTDTTSFSSDYELTKMVNGMIGTTFDHNRTHGSPEIDDFRLYMTQTCDNIELERSAYTWQQRLLYEHPLRLANSTKMPELIRERHPTRTFLIVVKNENDQSTFTLSVNEQDTPFSLTESTLQKMNRSQMKMNDRTSDYILKVSGRDEYLLGDYPLIQFLYIQEMLSDSAVPNVVLQSVYRLESYINHHNEQAMVTKRPLPKKRTVHLHKSISSLWDMGNYFQLTLHSISNVNFDKTRALKVGVHVCLYHGDKKLCAQRSTDSPNGNFDTFLFNDLVMDFDIQMRNLPRMTRLCIVIFEVTKMSRSKKSSNNKDIALKDVPYNKNPLAWVNTTIFDHKDILRTGRHTLYTWTYADDIQSVEVFHPLGTIEPNPRKEECALVDLTFLSSGTGTVRYPSEEVVLQYAADREQVNRLQRQLAGPEKPIKELKELMANYTGLDKIYEMVDQDRNAIWERRNDILRELPEELSILLHCVYWKERDDVADMWYLLKQWPLISIERSLELLDYAYPDPAVRRFAIRCLHFLKDEDLLLYLLQLVQAIKHESYLESDLVVFLLERALRNQRIGHYFFWHLRSEMQTPSMQTRFGLLLEVYLKGCKHHVAPLRKQLHVLEKLKQGSLIAKKGSKEKVKTMLQDFLRDQRNSAVFQNIQNPLNPSFRCSGVTPDRCKVMDSKMRPLWVVFENADVNASDVHIIFKNGDDLRQDMLTLQMLRVMDQLWKRDGMDFRMNIYNCISMEKSLGMIEVVRHAETIANIQKEKGMFSATSPFKKGSLLSWLKEHNKPADKLNKAINEFTLSCAGYCVATYVLGVADRHSDNIMVKRNGQLFHIDFGHILGHFKEKLGVRRERVPFVLTHDFVYVINKGFNDRESKEFCHFQELCERAFLVLRKHGCLILSLFSMMISTGLPELSSEKDLDYLRETLVLDYTEEKAREHFRAKFSEALANSWKTSLNWASHNFSKNNKQ
[1]
  luminescence signal, times the negative control (times the negative control): 4.6

B2: ref(2)P (refractory to sigma P), the orthologue of the human p62/Sequestosome 1 protein (natural protein)
chain: MPEKLLKITYQGAGPQKKINAYLRMPSQNYTILRREIELYLFQERQLPKCDVRTFWIDADKDEIEIVNQNDYEIFLAKCESNMHVQVAPLAPVEEPKATKQEGSSANAEAPSVDDPSNFTIHDAVECDGCGLAPLIGFRYKCVQCSNYDLCQKCELAHKHPEHLMLRMPTNNGPGMVDAWFTGPGLGRRSGRRSRGHCPFQETNQADPAGEPARDSRRERRQARRHAGVLTQFVEMMTNLPLNTTTATAPAEPQKPKAAEQTESPPQAEPTVTAEKAAESEAKPTEPKKVNTDQSVPRTEDPVTTPRSTQPTTPVINLDNISQIVPPEYMSAGIEILNNFSEMFSKIIDTTEGGDSGIFAPSTTPSAENKKPEEQGQSSGQSGASSANQSAVPSAAPSANQSNVPSANQSATPSISGSIPDAQLETEPLNPKPSETTTETEQERRRSDSLDPEWQLIDNAYSANNSNLINLDTTNPTAAPQEPVRDFGQLGELLRQHMNEEARVEQASANTQTAQVDTVSTSTSTTSVTTNSVGTSPAAPDDKRTVPVYHTDESINKSIHAMMAMGFSNEGAWLTQLLESVQGNISAALDVMNVSQNRN
[2]
  fold decrease of the interaction against EGFP-miPEP8 (MS intensity): 2.8 fold
